Results: patent publication US20220025012A1 (HANMI PHARM, published 2022)
One block for each binder: values may come before it. Square brackets hold non-standard residues; d marks the D form. Ends that are not written are not given here. αMeE = C[C@](N)(CCC(=O)O)C(=O)O

How the values were obtained:
human glucagon receptor = human glucagon receptor (human, UniProt P47871 26-477); assay: cell-based or functional assay
human GLP-1 receptor = human GLP-1 receptor (human, UniProt P43220 24-463); assay: cell-based or functional assay

human glucagon receptor, sequence (P47871 26-477): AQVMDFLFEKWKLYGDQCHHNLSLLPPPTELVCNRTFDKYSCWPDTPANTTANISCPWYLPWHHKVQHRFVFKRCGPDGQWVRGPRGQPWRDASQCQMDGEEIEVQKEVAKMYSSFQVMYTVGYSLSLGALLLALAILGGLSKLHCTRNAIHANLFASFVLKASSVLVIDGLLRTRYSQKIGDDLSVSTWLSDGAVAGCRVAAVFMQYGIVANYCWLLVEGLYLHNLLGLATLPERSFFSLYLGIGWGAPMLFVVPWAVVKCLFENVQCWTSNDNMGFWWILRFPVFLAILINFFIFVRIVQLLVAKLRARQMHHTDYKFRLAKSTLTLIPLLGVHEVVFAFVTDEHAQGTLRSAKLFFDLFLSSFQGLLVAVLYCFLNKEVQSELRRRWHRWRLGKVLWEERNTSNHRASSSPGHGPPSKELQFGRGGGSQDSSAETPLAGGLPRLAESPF

EC50 (nM), cAMP concentration in CHO cells expressing hGCGR (human glucagon receptor): 1.38 nM
EC50 (nM), cAMP concentration in CHO cells expressing hGLP-IR (human GLP-1 receptor): 0.96 nM
B1: glucagon derivative of SEQ ID NO: 12 (peptide)
peptide: H[αMeE]QGTFTSDYSKYLCEKRAKEFVQWLMNT
modifications: not fully specified

EC50 (nM), cAMP concentration in CHO cells expressing hGCGR (human glucagon receptor): 0.23 nM
EC50 (nM), cAMP concentration in CHO cells expressing hGLP-IR (human GLP-1 receptor): 0.27 nM
B2: glucagon derivative of SEQ ID NO: 13 (peptide)
peptide: H[αMeE]QGTFTSDYSKYLDECRAKEFVQWLMNT
modifications: not fully specified

EC50 (nM), cAMP concentration in CHO cells expressing hGCGR (human glucagon receptor): 0.38 nM
EC50 (nM), cAMP concentration in CHO cells expressing hGLP-IR (human GLP-1 receptor): 0.17 nM
B3: glucagon derivative of SEQ ID NO: 14 (peptide)
peptide: H[αMeE]QGTFTSDYSKYLDEKCAKEFVQWLMNT
modifications: not fully specified
